In the assay the target is T1, Flag-Drosha S300E,S302D (phospho-mimic) (UniProt Q9NRR4 1-1374, S300E | S302D).
T1 construct: Drosha with S300E and S302D, Flag-tagged as m1; also called phospho-mimic Drosha; source: HEK293T, transfected, in lysate
T1 sequence (looked up): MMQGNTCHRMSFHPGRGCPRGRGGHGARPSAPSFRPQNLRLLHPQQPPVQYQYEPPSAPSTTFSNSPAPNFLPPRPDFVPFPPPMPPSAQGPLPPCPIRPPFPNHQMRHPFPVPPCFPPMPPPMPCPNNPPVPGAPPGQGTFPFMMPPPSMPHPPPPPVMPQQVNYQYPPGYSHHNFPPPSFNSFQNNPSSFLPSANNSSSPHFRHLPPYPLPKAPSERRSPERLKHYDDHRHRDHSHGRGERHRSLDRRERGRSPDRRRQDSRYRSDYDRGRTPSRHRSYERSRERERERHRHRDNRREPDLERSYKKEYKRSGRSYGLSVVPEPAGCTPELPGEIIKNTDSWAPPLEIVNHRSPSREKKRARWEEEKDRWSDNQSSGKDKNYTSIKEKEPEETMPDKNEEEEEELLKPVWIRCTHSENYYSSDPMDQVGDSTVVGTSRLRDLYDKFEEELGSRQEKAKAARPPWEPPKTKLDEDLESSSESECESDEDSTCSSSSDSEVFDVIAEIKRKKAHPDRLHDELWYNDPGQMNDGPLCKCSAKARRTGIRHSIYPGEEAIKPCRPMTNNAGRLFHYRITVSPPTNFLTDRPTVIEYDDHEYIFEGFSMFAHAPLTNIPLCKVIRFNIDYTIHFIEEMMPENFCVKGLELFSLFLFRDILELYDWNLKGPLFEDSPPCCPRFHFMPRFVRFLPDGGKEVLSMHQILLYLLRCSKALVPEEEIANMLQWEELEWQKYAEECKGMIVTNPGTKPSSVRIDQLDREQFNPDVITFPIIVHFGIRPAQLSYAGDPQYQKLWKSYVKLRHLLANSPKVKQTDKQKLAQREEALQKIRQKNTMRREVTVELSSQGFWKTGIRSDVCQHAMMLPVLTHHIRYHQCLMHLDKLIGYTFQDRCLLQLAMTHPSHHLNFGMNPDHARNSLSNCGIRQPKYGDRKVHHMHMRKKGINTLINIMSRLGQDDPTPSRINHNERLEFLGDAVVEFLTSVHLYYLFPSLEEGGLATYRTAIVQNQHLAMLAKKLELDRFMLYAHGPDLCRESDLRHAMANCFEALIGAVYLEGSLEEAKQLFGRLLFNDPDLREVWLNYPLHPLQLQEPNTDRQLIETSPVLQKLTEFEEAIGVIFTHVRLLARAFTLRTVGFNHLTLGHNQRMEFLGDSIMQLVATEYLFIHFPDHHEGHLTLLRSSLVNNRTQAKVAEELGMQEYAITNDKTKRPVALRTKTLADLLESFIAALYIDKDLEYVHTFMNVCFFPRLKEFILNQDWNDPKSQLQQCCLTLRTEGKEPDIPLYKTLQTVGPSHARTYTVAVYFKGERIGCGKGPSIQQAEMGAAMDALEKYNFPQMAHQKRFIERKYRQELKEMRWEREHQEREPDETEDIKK
Briefly: co-IP; Flag immunoprecipitates of HEK293T cells transfected with Flag-Drosha (WT or mutants), blotted for PLK1 or DGCR8; cells treated with DMSO, RO-520 (100 nM) or NMS (500 nM) for 16 h, or samples with RNase A; mutant panel 72 h after transfection. The following applies: partners not purified.

The values that follow come from paper PMC10531876, “PLK1 Regulates MicroRNA Biogenesis through Drosha Phosphorylation” (International Journal of Molecular Sciences, 2023).

B1: DGCR8 (natural protein, human (endogenous in HEK293T), UniProt Q8WYQ5 1-773, looked up)
chain: METDESPSPLPCGPAGEAVMESRARPFQALPREQSPPPPLQTSSGAEVMDVGSGGDGQSELPAEDPFNFYGASLLSKGSFSKGRLLIDPNCSGHSPRTARHAPAVRKFSPDLKLLKDVKISVSFTESCRSKDRKVLYTGAERDVRAECGLLLSPVSGDVHACPFGGSVGDGVGIGGESADKKDEENELDQEKRVEYAVLDELEDFTDNLELDEEGAGGFTAKAIVQRDRVDEEALNFPYEDDFDNDVDALLEEGLCAPKKRRTEEKYGGDSDHPSDGETSVQPMMTKIKTVLKSRGRPPTEPLPDGWIMTFHNSGVPVYLHRESRVVTWSRPYFLGTGSIRKHDPPLSSIPCLHYKKMKDNEEREQSSDLTPSGDVSPVKPLSRSAELEFPLDEPDSMGADPGPPDEKDPLGAEAAPGALGQVKAKVEVCKDESVDLEEFRSYLEKRFDFEQVTVKKFRTWAERRQFNREMKRKQAESERPILPANQKLITLSVQDAPTKKEFVINPNGKSEVCILHEYMQRVLKVRPVYNFFECENPSEPFGASVTIDGVTYGSGTASSKKLAKNKAARATLEILIPDFVKQTSEEKPKDSEELEYFNHISIEDSRVYELTSKAGLLSPYQILHECLKRNHGMGDTSIKFEVVPGKNQKSEYVMACGKHTVRGWCKNKRVGKQLASQKILQLLHPHVKNWGSLLRMYGRESSKMVKQETSDKSVIELQQYAKKNKPNLHILSKLQEEMKRLAEEREETRKKPKMSIVASAQPGGEPLCTVDV
notes: DGCR8, Microprocessor cofactor of Drosha, detected by blot in Flag immunoprecipitates of HEK293T cells; source: HEK293T lysate (cells transfected with Flag-Drosha only)
As to B1, the “fold change of co-precipitated DGCR8 against WT Drosha” value was 2.5 fold.
